Experimental data from patent publication US20250346685A1 (published 2025).

B1: GPC3 × CD3 κλ002 (bispecific antibody, human IgG4 S228P, kappa, lambda)
light 1: DVVMTQSPLSLPVTPGEPASISCRSSQSIVHSNGNTYLEWYLKKPGQSPQLLIYKVSNRFSGVPDRFSGSGSGTDFTLKISRVEAEDVGVYFCLQVTHVPLTFGQGTKLEIKRTVAAPSVFIFPPSDEQLKSGTASVVCLLNNFYPREAKVQWKVDNALQSGNSQESVTEQDSKDSTYSLSSTLTLSKADYEKHKVYACEVTHQGLSSPVTKSFNRGEC
heavy 1: QVQLVQSGAEVKKPGSSVKVSCKASGYTFADYEIHWVREAPGQGLEWMGAIHPGSGGTAYAQKFQGRVTLTADESSTTAYMELSSLRSEDTAVYYCTRYYSFAYWGQGTLVTVSSASTKGPSVFPLAPCSRSTSESTAALGCLVKDYFPEPVTVSWNSGALTSGVHTFPAVLQSSGLYSLSSVVTVPSSSLGTKTYTCNVDHKPSNTKVDKRVESKYGPPCPPCPAPEFEGGPSVFLFPPKPKDTLMISRTPEVTCVVVDVSQEDPEVQFNWYVDGVEVHNAKTKPREEQFNSTYRVVSVLTVLHQDWLNGKEYKCKVSNKGLASSIEKTISKAKGQPREPQVCTLPPSQEEMTKNQVSLSCAVKGFYPSDIAVEWESNGQPENNYKTTPPVLDSDGSFFLVSKLTVDKSRWQEGNVFSCSVMHEALHNHYTQKSLSLSLGK
light 2: QAVVTQEPSLTVSPGGTVTLTCRSSTGAVTTSNYANWVQEKPGQAPRGLIGGTNKRAPWTPARFSGSLLGGKAALTITGAQAEDEAEYYCVLWYSNLWVFGGGTKLTVLGQPKAAPSVTLFPPSSEELQANKATLVCLISDFYPGAVTVAWKADSSPVKAGVETTTPSKQSNNKYAASSYLSLTPEQWKSHRSYSCQVTHEGSTVEKTVAPTECS
heavy 2: EVQLVESGGGLVQPGGSLRLSCAASGFTFNTYAMNWVRKAPGKGLEWVGRIRSKYNNYATYYADSVKDRFTISRDDSKNSLYLQMNSLKTEDTAVYYCVRHGNFGNSYVSWFAYWGQGTLVTVSSASTKGPSVFPLAPCSRSTSESTAALGCLVKDYFPEPVTVSWNSGALTSGVHTFPAVLQSSGLYSLSSVVTVPSSSLGTKTYTCNVDHKPSNTKVDKRVESKYGPPCPPCPAPEFEGGPSVFLFPPKPKDTLMISRTPEVTCVVVDVSQEDPEVQFNWYVDGVEVHNAKTKPREEQFNSTYRVVSVLTVLHQDWLNGKEYKCKVSNKGLASSIEKTISKAKGQPREPQVYTLPPCQEEMTKNQVSLWCLVKGFYPSDIAVEWESNGQPENNYKTTPPVLDSDGSFFLYSKLTVDKSRWQEGNVFSCSVMHEALHNHYTQKSLSLSLGK
notes: also called GPC3×CD3 κλ bispecific antibody
B2: GPC3 × CD3 κλ003 (bispecific antibody, human IgG4 S228P, kappa, lambda)
light 1: DVVMTQSPLSLPVTPGEPASISCRSSQSIVHSNGNTYLEWYLKKPGQSPQLLIYKVSNRFSGVPDRFSGSGSGTDFTLKISRVEAEDVGVYFCLQVTHVPLTFGQGTKLEIKRTVAAPSVFIFPPSDKKLKSGTASVVCLLNNFYPREAKVQWKVDNALQSGNSQESVTEQDSKDSTYSLSSTLTLSKADYEKHKVYACEVTHQGLSSPVTKSFNRGEC
heavy 1: QVQLVQSGAEVKKPGSSVKVSCKASGYTFADYEIHWVREAPGQGLEWMGAIHPGSGGTAYAQKFQGRVTLTADESSTTAYMELSSLRSEDTAVYYCTRYYSFAYWGQGTLVTVSSASTKGPSVFPLAPCSRSTSESTAALGCLVEDYFPEPVTVSWNSGALTSGVHTFPAVLQSSGLYSLSSVVTVPSSSLGTKTYTCNVDHKPSNTKVDERVESKYGPPCPPCPAPEFEGGPSVFLFPPKPKDTLMISRTPEVTCVVVDVSQEDPEVQFNWYVDGVEVHNAKTKPREEQFNSTYRVVSVLTVLHQDWLNGKEYKCKVSNKGLASSIEKTISKAKGQPREPQVCTLPPSQEEMTKNQVSLSCAVKGFYPSDIAVEWESNGQPENNYKTTPPVLDSDGSFFLVSKLTVDKSRWQEGNVFSCSVMHEALHNHYTQKSLSLSLGK
light 2: QAVVTQEPSLTVSPGGTVTLTCRSSTGAVTTSNYANWVQEKPGQAPRGLIGGTNKRAPWTPARFSGSLLGGKAALTITGAQAEDEAEYYCVLWYSNLWVFGGGTKLTVLGQPKAAPSVTLFPPSSEELQANKATLVCLISDFYPGAVTVAWKADSSPVKAGVETTTPSKQSNNKYAASSYLSLTPEQWKSHRSYSCQVTHEGSTVEKTVAPTECS
heavy 2: EVQLVESGGGLVQPGGSLRLSCAASGFTFNTYAMNWVRKAPGKGLEWVGRIRSKYNNYATYYADSVKDRFTISRDDSKNSLYLQMNSLKTEDTAVYYCVRHGNFGNSYVSWFAYWGQGTLVTVSSASTKGPSVFPLAPCSRSTSESTAALGCLVKDYFPEPVTVSWNSGALTSGVHTFPAVLQSSGLYSLSSVVTVPSSSLGTKTYTCNVDHKPSNTKVDKRVESKYGPPCPPCPAPEFEGGPSVFLFPPKPKDTLMISRTPEVTCVVVDVSQEDPEVQFNWYVDGVEVHNAKTKPREEQFNSTYRVVSVLTVLHQDWLNGKEYKCKVSNKGLASSIEKTISKAKGQPREPQVYTLPPCQEEMTKNQVSLWCLVKGFYPSDIAVEWESNGQPENNYKTTPPVLDSDGSFFLYSKLTVDKSRWQEGNVFSCSVMHEALHNHYTQKSLSLSLGK
notes: Human IgG4 knob-into-hole Fc with Ser228Pro, Leu235Glu, Pro329Ala; also called GPC3×CD3 κλ bispecific antibody

How the values were obtained:
[1] = target: T1, cynomolgus monkey GPC3 on CHO stably transfected cells (cynomolgus monkey, UniProt A0A2K5VK50 24-553); experiment: flow cytometry on CHO-cynomolgus monkey GPC3 stably transfected cells
T1 construct: whole, on cells; also called Cynomolgus monkey GPC3-CHO; CHO-Cynomolgus monkey GPC3
Method: (§1) CHO-human GPC3, CHO-Cynomolgus monkey GPC3 stably transfected cells or human hepatocellular carcinoma HepG2 tumor cells in logarithmic growth phase were taken. After blocking, the cells were adjusted to 5×10⁵ cells/ml, and 100 μl/well cell suspension was added to 96-well U-shaped plate and centrifuged at 300 g for 5 min. The supernatant was discarded, 100 μL of gradient diluted antibody (with a starting concentration of 1800 nM, 3-fold dilution, 10 gradients) was added to each well, and incubated at 4° C. for 60 min. 50 μL/well Alexa Fluro647 labeled goat anti-human IgG Fc (1:300 dilution) were added to the secondary antibody, incubated on ice for 20 min, added with 50 μL/well PI solution (1:300) after washing once, incubated for 5 min, and flow cytometer was used to make detection.

[2] = target: T2, human CD3 on T cells (Jurkat cells; human peripheral blood CD4+ and CD8+ T-cells) (human, UniProt P07766 23-207); experiment: flow cytometry on peripheral blood CD4+ T-cells
T2 construct: whole, on cells; also called CD4T; CD4 + T
Method: (§2) Fresh human or cynomolgus monkey peripheral blood was taken and PBMC was isolated by Ficoll. Paque Plus (GE, 17-1440-03). PBMC was adjusted to 5×10⁵ cells/mL with 4% calf serum (Hyclone, SH30626.06), 100 μL/well was added to a 96-well U-plate, the supernatant was centrifuged off and 100 μL of gradient diluted antibody (with starting concentration of 1800 nM, 3-fold dilution, 10 gradients) was added to each well and incubated for 60 min at 4° C. 50 μL/well Alexa Fluro647 labeled goat anti-human IgG Fc (1:300 dilution) was added to secondary antibody, with ice bath for 20 min. 50 μL/well PI was added after washing once and incubated for 5 min, and flow cytometer (BD Celesta) is used to make detection.

[3] = target: T2, human CD3 on T cells (Jurkat cells; …); experiment: flow cytometry on peripheral blood CD8+ T-cells
Method: as §2

[4] = target: T3, human GPC3 on cells (CHO-human GPC3 stably transfected cells; HepG2 tumor cells) (human, UniProt P51654 25-554); experiment: flow cytometry on HepG2 cells
T3 construct: whole, on cells; also called Human GPC3-CHO
Method: as §1

[5] = target: T3, human GPC3 on cells (CHO-human GPC3 …); experiment: flow cytometry on CHO-human GPC3 stably transfected cells
Method: as §1

[6] = target: T2, human CD3 on T cells (Jurkat cells; …); experiment: flow cytometry on Jurkat cells
Method: The cells were adjusted to 5×10^5 cells/mL with 4% calf serum, 100 μL/well was added to 96-well U-plate, 300 g was centrifuged to removed the supernatant, 100 μL/well of gradient diluted antibody (initial concentration: 1800 nM, 3-fold dilution, 10 gradients) was added and incubated at 4° C. for 60 min. 50 μL/well Alexa Fluro647-labeled goat anti-human IgG Fc (1:300 dilution) was added to the secondary antibody and incubated on ice for 20 min. 50 μL/well PI was added after washing once, incubated for 5 min, and detected with flow cytometer (BD C6).

| Binder | EC50 [1] [nM] | EC50 [2] [nM] | EC50 [3] [nM] | EC50 [4] [nM] | EC50 [5] [nM] | EC50 [6] [nM] |
| --- | --- | --- | --- | --- | --- | --- |
| B1 | 3 | 65 | 65 | 2.1 | 2.8 | 36 |
| B2 | 3 | 56 | 69 | 2.5 | 2.9 | 26 |
